Data taken from patent US20220169728A1 (AB THERAPEUTICS, published 2022).
Substitutions are numbered along the chain they refer to.

T1: CD55 (UniProt P08174 35-353, limits assumed)
T1 construct: whole, on cells; also called CD55 on Rituximab resistant Raji cells (RRCL)
T1 sequence (looked up): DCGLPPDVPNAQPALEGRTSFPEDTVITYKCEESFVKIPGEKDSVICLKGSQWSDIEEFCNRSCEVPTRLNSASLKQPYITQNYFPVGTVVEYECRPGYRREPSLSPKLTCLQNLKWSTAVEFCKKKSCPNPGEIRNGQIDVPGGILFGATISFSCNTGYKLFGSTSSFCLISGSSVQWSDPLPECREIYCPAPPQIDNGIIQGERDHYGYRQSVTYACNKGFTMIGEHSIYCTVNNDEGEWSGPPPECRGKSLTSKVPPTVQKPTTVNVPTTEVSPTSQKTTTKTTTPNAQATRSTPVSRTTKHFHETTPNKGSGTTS

T2: CD20 (UniProt P11836 1-297, limits assumed)
T2 construct: whole, on cells; also called CD20 on Raji cells
T2 sequence (looked up): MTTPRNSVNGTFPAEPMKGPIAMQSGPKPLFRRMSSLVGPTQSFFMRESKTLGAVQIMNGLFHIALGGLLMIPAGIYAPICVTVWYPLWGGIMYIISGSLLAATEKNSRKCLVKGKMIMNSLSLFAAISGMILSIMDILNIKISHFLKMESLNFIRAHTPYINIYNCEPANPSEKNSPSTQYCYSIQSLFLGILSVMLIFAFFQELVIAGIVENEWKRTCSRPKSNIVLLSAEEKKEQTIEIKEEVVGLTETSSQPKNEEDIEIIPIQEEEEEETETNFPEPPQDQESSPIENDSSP

B1: Anti-PD-L1 homodimer IgG (PD-L1 v1) containing the designed VH sequence (SEQ ID NO: 4) and the common VL sequence (SEQ ID NO: 6) (antibody, V domains shown)
VH: EVQLLESGGGLVEPGGSLRLSCAASGFTFSSYIMMWVRQAPGKGLEWVSSIYPSGGITFYADTVKGRFTISRDNSKNTLYLQMNSLRAEDTAVYYCARIKLGTVTTVDYWGEGTLVTVSS
VL: QSALTQPASVSGSPGQSITISCTGTSSDVGGYNYVSWYQQHPGKAPKLMIYDVSKRPSGVSNRFSGSKSGNTASLTISGLQAEDEADYYCSSYTSASTRIFGGGTKVTVLR
notes: Homodimer IgG; also called PDL1 homodimer version 1
B2: Anti-CD55 homodimer IgG (CD55 v1) containing the designed VH sequence (SEQ ID NO: 5) and the common VL sequence (SEQ ID NO: 6) (antibody, V domains shown)
VH: QVKLQESGGGLVKPGGSLKLSCAASGFTFSGYGMSWIRQTPGKRLEWVATINSGGSYTYYSDSVKGRFTISRDNVKNTLYLQMSSLKSEDTAMYYCARRNGTLYYYLMDYWGRGTLVTVSS
VL: B1 VL
notes: Homodimer IgG; also called CD55 homodimer version 1
B3: parental anti-CD55 antibody (CD55 wt), monoclonal antibody having CD55VH (SEQ ID NO: 14 without any mutations) and the VL (SEQ ID NO: 15) (antibody, V domains shown)
VH: B2 VH with K13Q, G42D
VL: QSVLTQPPSASGSPGQSVTISCTGTSSDVGGYNYVSWYQQHPGKAPKFMIYDVSKRPSGVSNRFSGSKSGNTASLTISGVQAEDEADYYCSSYTSASTVIFGGGTKLTVL
notes: Variable domains derived from a CD55 scFv; also called CD55VH + VL; CD55 parental Ab
B4: parental anti-CD20 IgG (Parental CD20) (antibody, V domains shown)
VH: QVQLQQPGAELVKPGASVKMSCKASGYTFTSYNMHWVKQTPGRGLEWIGAIYPGNGDTSYNQKFKGKATLTADKSSSTAYMQLSSLTSEDSAVYYCARSTYYGGDWYFNVWGAGTTVTVSA
VL: QIVLSQSPAILSASPGEKVTMTCRASSSVSYIHWFQQKPGSSPKPWIYATSNLASGVPVRFSGSGSGTSYSLTISRVEAEDAATYYCQQWTSNPPTFGGGTKLEIKR
notes: IgG; also called Rituximab; CD20 parental Ab
B5: CD20 homodimer IgG containing the designed VH sequence (SEQ ID NO: 1) and the common VL sequence (SEQ ID NO: 3) (antibody, V domains shown)
VH: B4 VH with T87R
VL: B4 VL
notes: IgG homodimer with two VHa and two common VL; also called redesigned Rituximab; antibody A
B6: CD3 homodimer IgG containing the designed VH sequence (SEQ ID NO: 2) and the common VL sequence (SEQ ID NO: 3) (antibody, V domains shown)
VH: EVQLQESGAELARPGASVKMSCKASGYTFTSYTMHWVKQRPGEGLEWIGYINPSSGYTKYNQKFKDKATLTADKSSSTAYMELSSLTSEDSAVYYCARWQDYDVYFDYWGEGTTLTVSS
VL: B4 VL
notes: IgG homodimer with two VHb and two common VL; also called redesigned 12F6; antibody B

Assays:
PD-L1 = PD-L1 (UniProt Q9NZQ7 19-290, limits assumed); assay: flow cytometry binding to MDA231 cells, Cy3 goat anti-human IgG detection
Method: (§1) a) MDA231 cells are prepared in media at a concentration of 1×10⁶ cells/mL. [0411] b) Dilute antibody sample to an appropriate concentration. [0412] c) Transfer 50 μL, of cells into each well of 96 well V-bottom plate. [0413] d) Transfer 50 μL, of antibodies into wells of 96 well V-bottom plate. [0414] e) Incubate cell mixture for 60 min at room temperature. [0415] f) Spin cells down and wash twice with FACS buffer. [0416] g) Re-suspend cells in 100 μL, FACS buffer containing Cy3 conjugated goat anti-human (GAH) IgG (1:500) in each well. [0417] h) Incubate at room temperature for 30 min, and wash with FACS buffer×2.

CD55 [1] = biological target: T1, CD55; assay: as above
Method: as §1

CD55 [2] = biological target: T1, CD55; assay: binding at 5 µg/ml, the baseline itself; format not stated
CD20 = biological target: T2, CD20; assay: flow cytometry binding to CD20+ Raji cells, antibody titration, Cy3 goat anti-human IgG detection
CD3 = biological target: T3, CD3 (Homo sapiens (Human), UniProt P07766 23-207; P04234 22-171; P09693 23-182); assay: flow cytometry binding to CD3+ Jurkat cells, antibody titration, Cy3 goat anti-human IgG detection
T3 construct: also called CD3 on Jurkat cells
T3 sequence (P07766 23-207 limits assumed, chain 1 of 3): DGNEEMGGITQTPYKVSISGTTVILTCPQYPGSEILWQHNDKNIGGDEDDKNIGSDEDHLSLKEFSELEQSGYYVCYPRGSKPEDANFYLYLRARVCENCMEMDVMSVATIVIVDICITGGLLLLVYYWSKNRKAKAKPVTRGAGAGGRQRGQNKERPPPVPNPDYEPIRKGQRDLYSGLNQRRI
T3 sequence (P04234 22-171 limits assumed, chain 2 of 3): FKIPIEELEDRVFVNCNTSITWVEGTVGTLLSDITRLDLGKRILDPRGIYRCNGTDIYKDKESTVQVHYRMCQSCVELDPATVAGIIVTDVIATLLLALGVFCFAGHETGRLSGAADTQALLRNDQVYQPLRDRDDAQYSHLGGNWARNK
T3 sequence (P09693 23-182 limits assumed, chain 3 of 3): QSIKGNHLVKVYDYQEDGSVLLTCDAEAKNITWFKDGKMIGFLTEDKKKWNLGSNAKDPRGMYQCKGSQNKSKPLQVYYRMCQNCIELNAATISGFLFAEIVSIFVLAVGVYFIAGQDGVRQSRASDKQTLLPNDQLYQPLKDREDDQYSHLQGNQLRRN

Chain of PD-L1 (Q9NZQ7 19-290 limits assumed): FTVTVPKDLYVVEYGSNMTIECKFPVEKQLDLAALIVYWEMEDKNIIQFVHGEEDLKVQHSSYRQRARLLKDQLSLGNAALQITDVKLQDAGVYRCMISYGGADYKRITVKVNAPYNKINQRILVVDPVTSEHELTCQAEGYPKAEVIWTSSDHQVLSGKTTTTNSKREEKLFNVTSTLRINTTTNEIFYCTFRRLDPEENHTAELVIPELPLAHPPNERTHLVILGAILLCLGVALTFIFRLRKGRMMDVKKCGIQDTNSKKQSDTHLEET

Row | EC50 (read off the curve) (CD20) | binding result (CD3) | other results | Binder
1 |  |  | binding result (PD-L1): binds | B1
2 |  |  | binding result (CD55 [1]): binds | B2
3 |  |  | Function remaining percentage (5 µg/ml) (CD55 [2]): 100% | B3
4 | ~0.2 µg/mL | no binding (tested: 10 µg/ml) |  | B4
5 | ~0.4 µg/mL | no binding (tested: 10 µg/ml) |  | B5
6 |  |  | binding result (CD20): no binding (tested: 10 µg/ml) | B6
